The text below walks through data of paper PMC10127692.

Experiment in all cases: two-hybrid
Experiment [1] has as its target BD-SUD2_(core) (SUD2-N+M, K412 to S675 of SARS-CoV-2 Nsp3, fused to the DNA binding domain) (SARS-CoV-2).
Experiment [2] has as its target SUD2-M (I549 to S675 of SARS-CoV-2 Nsp3), two-hybrid bait (SARS-CoV-2).
In experiment [3] the target is SUD2-N (K412 to E548 of SARS-CoV-2 Nsp3), two-hybrid bait (SARS-CoV-2).

Turning to “AD-Nsp5 (Nsp5 of SARS-CoV-2 fused to the activation domain) (from UniProt P0DTD1 3264-3569)”, the fold LacZ reporter induction against full-length SUD2 in experiment [1] came out at 2.1 fold. For “AD-Nsp5 (Nsp5 of SARS-CoV-2 fused to the activation domain) (from UniProt P0DTD1 3264-3569) (enzyme)”, the LacZ reporter activity compared with SUD2-N+M in experiment [2] was determined as 86%; in experiment [3] it was 47%.
